# Data published in patent US20040142445.
# B1: MDTS6TSP1 protein (protein)
# chain: FVSIPRYVETLVVADESMVKFHGADLEHYLLTLLATAARLYRHPSILNPINIVVVKVLLLRDRDSGPKVTGNAALTLRNFCAWQKKLNKVSDKHPEYWDTAILFTRQDLCGATTCDTLGMADVGTMCDPKRSCSVIEDDGLPSAFTTAHELGHVFNMPHDNVKVCEEVFGKLRANHMMSPTLIQIDRANPWSACSAAIITDFLDSGHGDCLLDQPSKPISLPEDLPGASYTLSQQCELAFGVGSKPCPYMQYCTKLWCTGKAKGQMVCQTRHFPWADGTSCGEGKLCLKGACVERHNLNKHRVDGSWAKWDPYGPCSRTCGGGVQLARRQCTNPTPANGGKYCEGVRVKYRSCNLEPCPSSASGKSFREEQ
# B2: MDTS6Dis (protein)
# chain: FVSIPRYVETLVVADESMVKFHGADLEHYLLTLLATAARLYRHPSILNPINIVVVKVLLLRDRDSGPKVTGNAALTLRNFCAWQKKLNKVSDKHPEYWDTAILFTRQDLCGATTCDTLGMADVGTMCDPKRSCSVIEDDGLPSAFTTAHELGHVFNMPHDNVKVCEEVFGKLRANHMMSPTLIQIDRANPWSACSAAIITDFLDSGHGDCLLDQPSKPISLPEDLPGASYTLSQQCELAFGVGSKPCPYMQYCTKLWCTGKAKGQMVCQTRHFPWADGTSCGEGKLCLKGACVERHNLNKHRVDGSGSAAADYKDDDDK
# B3: MDTS6Pro (protein)
# chain: FVSIPRYVETLVVADESMVKFHGADLEHYLLTLLATAARLYRHPSILNPINIVVVKVLLLRDRDSGPKVTGNAALTLRNFCAWQKKLNKVSDKHPEYWDTAILFTRQDLCGATTCDTLGMADVGTMCDPKRSCSVIEDDGLPSAFTTAHELGHVFNMPHDNVKVCEEVFGKLRANHMMSPTLIQIDRANPWSACSAAIITDFLDSGHGDCLLDQPSKPISLPEDLPGASYTLSQQGSAAADYKDDDDK
# B4: MDTS6Cys (protein)
# chain: FVSIPRYVETLVVADESMVKFHGADLEHYLLTLLATAARLYRHPSILNPINIVVVKVLLLRDRDSGPKVTGNAALTLRNFCAWQKKLNKVSDKHPEYWDTAILFTRQDLCGATTCDTLGMADVGTMCDPKRSCSVIEDDGLPSAFTTAHELGHVFNMPHDNVKVCEEVFGKLRANHMMSPTLIQIDRANPWSACSAAIITDFLDSGHGDCLLDQPSKPISLPEDLPGASYTLSQQCELAFGVGSKPCPYMQYCTKLWCTGKAKGQMVCQTRHFPWADGTSCGEGKLCLKGACVERHNLNKHRVDGSWAKWDPYGPCSRTCGGGVQLARRQCTNPTPANGGKYCEGVRVKYRSCNLEPCPSSASGKSFREEQCEAFNGYNHSTNRLTLAVAWVPKYSGVSPRDKCKLICRANGTGYFYVLAPKVVDGTLCSPDSTSVCVQGKCIKAGCDGNLGSKKRFDKCGVCGGDNKSCKKVTGGSAAADYKDDDDK
# Assays:
# [1] = target: recombinant aggrecan G1G2, P16112
# [2] = target: natural type aggrecan (mfd. by Seikagaku Kogyo)
# Chain of recombinant aggrecan G1G2, P16112 (P16112 20-675): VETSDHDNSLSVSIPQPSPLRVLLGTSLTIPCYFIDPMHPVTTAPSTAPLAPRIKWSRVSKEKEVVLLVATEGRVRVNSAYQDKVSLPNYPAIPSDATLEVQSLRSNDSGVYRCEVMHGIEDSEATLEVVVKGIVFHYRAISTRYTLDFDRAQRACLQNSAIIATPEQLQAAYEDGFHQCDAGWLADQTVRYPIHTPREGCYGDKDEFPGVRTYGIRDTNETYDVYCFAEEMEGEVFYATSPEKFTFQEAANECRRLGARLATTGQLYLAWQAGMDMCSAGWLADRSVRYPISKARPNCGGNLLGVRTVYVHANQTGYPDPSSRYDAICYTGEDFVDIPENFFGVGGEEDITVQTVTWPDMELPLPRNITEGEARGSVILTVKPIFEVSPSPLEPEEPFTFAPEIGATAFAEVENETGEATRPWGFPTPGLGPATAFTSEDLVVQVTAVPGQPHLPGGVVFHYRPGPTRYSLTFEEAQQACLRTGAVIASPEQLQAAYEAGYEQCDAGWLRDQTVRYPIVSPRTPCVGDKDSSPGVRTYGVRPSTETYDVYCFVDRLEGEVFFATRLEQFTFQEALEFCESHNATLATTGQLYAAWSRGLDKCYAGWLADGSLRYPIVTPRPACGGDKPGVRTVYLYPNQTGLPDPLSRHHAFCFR
Protein,"recombinant aggrecan G1G2 degrading activity (western blot, anti-His detection) [1]","aggrecanase activity (method of Example 7-3, neoepitope western blot) [1]",cleavage at the aggrecanase site (western blot) [1],cleavage at the aggrecanase site (western blot) [2],degradation of natural type aggrecan (neoepitope western blot) [2]
B1,"degraded fragment of the recombinant aggrecan, which was not found in the control in which only the expression plasmid was introduced, was detected",,,,
B2,,the aggrecanase activity was not detected in the culture supernatants in which MDTS6Pro and MDTS6Dis were expressed,,,
B3,,the aggrecanase activity was not detected in the culture supernatants in which MDTS6Pro and MDTS6Dis were expressed,,,
B4,,the aggrecanase activity was detected in the culture supernatant in which MDTS6Cys was expressed,the recombinant aggrecan G1G2 and the natural type aggrecan are cleaved off at the site between Glu373-Ala374 ... by MDTS6Cys,the recombinant aggrecan G1G2 and the natural type aggrecan are cleaved off at the site between Glu373-Ala374 ... by MDTS6Cys,a band of 80 to 90 KDa was detected in the case of MDTS6Cys in addition to a band of about 150 KDa
